Reference: the supplement of paper PMC10126150
± gives the standard deviation of the averaged measurements.

These sequences were tested on ATP (assay: switch fluorescence ratio, 500 uM ATP over buffer (Cy3 cluster intensity, sum of 5 cycles each) (fold (ratio)); higher = stronger signal-on switching upon ATP binding; sequences stand for … in TCGTCGGCAGCGTCAGATGTGTATAAGAGACAGTTTTTTTTTTTTTTTTTTTTTTTTT…TC). Details: aptamer strand: ATP DNA aptamer (quencher-CACCTGGGGGAGTATTGCGGAGGAAGG + anchor), 100 nM annealed; ATP concentration: 500 uM.
Procedure, shortened: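 The fluorescence ratio divides summed target-cycle Cy3 intensity by summed buffer-cycle Cy3 intensity for each cluster and is averaged per switch-domain sequence. Cy3-labelled switching-strand clusters on a modified Illumina MiSeq flow-cell were annealed to 100 nM quencher-labelled ATP aptamer, then imaged in selection buffer and again after 15 min with 500 uM ATP at 22 °C. Five such cycles were run, with NaOH stripping and re-annealing between them, and clusters outside 100-1000 RFU were excluded.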
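Note: ATP exposure 15 min at 22 °C before imaging.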

Compared with AAGCTTATAT, ACCTCCCGTT is higher in switch fluorescence ratio: 0.9999 ± 0.0089 for the first, 1.12 ± 0.064 for the second.

Compared with CAAAAAGATT, ACCGCGCGAC is higher in switch fluorescence ratio: 1.01 ± 0.017 for the first, 2.49 ± 0.053 for the second.

Compared with ATGATATGTT, CGCTTAATCT is higher in switch fluorescence ratio: 0.992 ± 0.034 for the first, 1.07 ± 0.018 for the second.

CGGGGCTAGC and GGTTTATTAT are the same in switch fluorescence ratio: 1.02 ± 0.026 for the first, 1.02 ± 0.017 for the second.

First: GGCTCCAACG
Second: CGAGGGGTTT
The switch fluorescence ratio of the first is higher: 1.06 ± 0.013 for the first, 0.984 ± 0.059 for the second.

AACGGTGGGG and AAAGGAAGAA are within error of each other in switch fluorescence ratio: 0.992 ± 0.034 for the first, 1.013 ± 0.0073 for the second.

First: ATCCTGGGTG
Second: GGATCGCGAA
The switch fluorescence ratio of the first is higher: 3.73 ± 1.5 for the first, 0.978 ± 0.011 for the second.

TGAATTGGGG and GATCTGTCAG are within error of each other in switch fluorescence ratio: 1.06 ± 0.084 for the first, 1.01 ± 0.021 for the second.

TAAGGTTGGT and TGACGGGGGT are within error of each other in switch fluorescence ratio: 0.987 ± 0.028 for the first, 0.989 ± 0.028 for the second.

Going from TCCCACGGCC to ATGGCCGGGT, the switch fluorescence ratio falls from 1.083 ± 0.0017 to 1.01 ± 0.013.

TGCCTTAAGT and ATGGGAGGGC are within error of each other in switch fluorescence ratio: 1.01 ± 0.063 for the first, 0.9698 ± 0.0059 for the second.

Compared with GCACTAGGGA, ACCGAGATCA is higher in switch fluorescence ratio: 0.9908 ± 0.0062 for the first, 1.03 ± 0.014 for the second.

Compared with TGTAAAGATT, TAGGCTTAGG is higher in switch fluorescence ratio: 1.0093 ± 0.00041 for the first, 1.029 ± 0.0019 for the second.

First: ATGAGGTTTT
Second: CATGCACTAT
The switch fluorescence ratio of the first is lower: 0.991 ± 0.012 for the first, 1.08 ± 0.021 for the second.

GTTAGGGGGG and AAGGGAGCAC are within error of each other in switch fluorescence ratio: 0.979 ± 0.036 for the first, 1.02 ± 0.023 for the second.

TGTGGGCTGG and CGGAGGAGC are the same in switch fluorescence ratio: 1.02 ± 0.012 for the first, 1.02 ± 0.016 for the second.

TTATTTTATG and ATATTGTCCA are within error of each other in switch fluorescence ratio: 0.994 ± 0.027 for the first, 1.02 ± 0.0039 for the second.

GGTTTTCGAA and ATGGATTTGT are the same in switch fluorescence ratio: 1.01 ± 0.042 for the first, 1.01 ± 0.021 for the second.

GAGATTCGCC and GGGCTATAGC are within error of each other in switch fluorescence ratio: 1.02 ± 0.054 for the first, 0.997 ± 0.056 for the second.

AAGCGGGGAA and AGGTTGTGAG are within error of each other in switch fluorescence ratio: 1.02 ± 0.03 for the first, 0.98 ± 0.034 for the second.

TTACGGTTTT and TTGGCTGTAG are within error of each other in switch fluorescence ratio: 1.01 ± 0.023 for the first, 1.13 ± 0.13 for the second.

First: ATTGATTGAG
Second: AAGTCAGTGC
The switch fluorescence ratio of the first is lower: 0.986 ± 0.022 for the first, 1.11 ± 0.013 for the second.

GCTGCCTAAA and TAGCTTGTCA are within error of each other in switch fluorescence ratio: 0.9809 ± 0.0019 for the first, 0.9884 ± 0.0065 for the second.

First: CGTTTTGATA
Second: AGATTAGCGC
The switch fluorescence ratio of the first is higher: 1.01 ± 0.012 for the first, 0.9812 ± 0.0063 for the second.

Compared with AGCCATGGCT, GCTACGCGCT is higher in switch fluorescence ratio: 0.9927 ± 0.0099 for the first, 1.36 ± 0.021 for the second.

CGAGGTTATT and GCCGGGGGTT are within error of each other in switch fluorescence ratio: 1 ± 0.037 for the first, 1.2 ± 0.21 for the second.

CAGCTTGTTT and TTATAAGGGG are within error of each other in switch fluorescence ratio: 1.01 ± 0.02 for the first, 0.979 ± 0.04 for the second.

AAAAGTCAGT and AATGAGGGAA are within error of each other in switch fluorescence ratio: 0.988 ± 0.053 for the first, 0.9986 ± 0.0011 for the second.

TTTGCATTCA and AATCGGGAGT are within error of each other in switch fluorescence ratio: 0.999 ± 0.038 for the first, 1.013 ± 0.0094 for the second.

Going from CTGTGATGG to TTATAGAAGA, the switch fluorescence ratio falls from 1.0776 ± 0.00079 to 1.01 ± 0.0082.

CATTAAAGTA and ATAAGTCACG are within error of each other in switch fluorescence ratio: 1.1 ± 0.021 for the first, 1.06 ± 0.028 for the second.

GTAAAAGTCG and GAGTTAAAGT are within error of each other in switch fluorescence ratio: 1.03 ± 0.015 for the first, 1.01 ± 0.014 for the second.

CAGCTCTAAG and AAGGCACAAG are the same in switch fluorescence ratio: 1 ± 0.013 for the first, 1 ± 0.021 for the second.

First: TGGGATTTTG
Second: TTGGTCGCGT
The switch fluorescence ratio of the first is higher: 1.014 ± 0.0028 for the first, 1.003 ± 0.0019 for the second.

TCAACGTAGA and CAGGGCTTAG are within error of each other in switch fluorescence ratio: 1.03 ± 0.014 for the first, 1.01 ± 0.035 for the second.

GGGATGAGTT and TGGGTTGTAT are within error of each other in switch fluorescence ratio: 0.98 ± 0.041 for the first, 0.998 ± 0.02 for the second.

Compared with TATTTGCGCA, TACTAACCTT is higher in switch fluorescence ratio: 1.06 ± 0.099 for the first, 1.43 ± 0.18 for the second.

GGAAAGTCAG and ATTCGTTTGC are within error of each other in switch fluorescence ratio: 0.992 ± 0.027 for the first, 1 ± 0.057 for the second.

AAAGGAGGAG and TAGTTATCGA are within error of each other in switch fluorescence ratio: 0.991 ± 0.038 for the first, 0.997 ± 0.0069 for the second.

Going from TACGGGGGAT to TTCCGAAATG, the switch fluorescence ratio rises from 1.02 ± 0.054 to 1.63 ± 0.17.

Going from AAATTTACCT to ATAGACGCTA, the switch fluorescence ratio falls from 1.42 ± 0.072 to 1.12 ± 0.017.

ATCAGAGCCG and TAAGCTGGCG are within error of each other in switch fluorescence ratio: 0.98 ± 0.083 for the first, 1.06 ± 0.14 for the second.

First: GTTTAAATAG
Second: TAACCGATAT
The switch fluorescence ratio of the first is higher: 1.04 ± 0.011 for the first, 0.99434 ± 0.00034 for the second.

Going from CTGAGGTATG to GGAGGGATAA, the switch fluorescence ratio rises from 1.023 ± 0.0057 to 1.1 ± 0.054.

First: CGTTGTAGGG
Second: CGGGCATATA
The switch fluorescence ratio of the first is lower: 0.989 ± 0.01 for the first, 1.1969 ± 8.5e-05 for the second.

CAGCTCTGTT and ATTCAGAAGA are within error of each other in switch fluorescence ratio: 0.984 ± 0.041 for the first, 1.07 ± 0.12 for the second.

ATCCAAATGG and TGATGATGAG are within error of each other in switch fluorescence ratio: 1.01 ± 0.033 for the first, 0.996 ± 0.013 for the second.

TGGGGTACAT and GTGTTTTGGC are within error of each other in switch fluorescence ratio: 0.991 ± 0.016 for the first, 1.02 ± 0.029 for the second.

TTCCGGTCCG and GATGTGAATT are within error of each other in switch fluorescence ratio: 1.16 ± 0.18 for the first, 1.02 ± 0.011 for the second.

TTAGTATGAC and CAGGGGAAAT are within error of each other in switch fluorescence ratio: 1.02 ± 0.042 for the first, 0.993 ± 0.029 for the second.

TTTTCTTGGG and TCGTGAGTAG are within error of each other in switch fluorescence ratio: 1.03 ± 0.071 for the first, 0.973 ± 0.017 for the second.

CAATGATGAC and CGGTGGTGGG are within error of each other in switch fluorescence ratio: 1.01 ± 0.018 for the first, 1.031 ± 0.0066 for the second.

GGCCTCCTGT and GCATAACAGG are within error of each other in switch fluorescence ratio: 1.02 ± 0.033 for the first, 1.04 ± 0.045 for the second.

CAGGAAGGGA and CGGGAGAGGT are within error of each other in switch fluorescence ratio: 0.9958 ± 0.0064 for the first, 0.988 ± 0.011 for the second.

GCTTCTTTTG and CGGGAGAAAT are within error of each other in switch fluorescence ratio: 1.09 ± 0.15 for the first, 1.24 ± 0.34 for the second.

AGTCGCCCTG and ATCGTATGGA are within error of each other in switch fluorescence ratio: 0.985 ± 0.05 for the first, 0.998 ± 0.013 for the second.

AATATTTGGC and TAGTTAAATC are the same in switch fluorescence ratio: 1 ± 0.059 for the first, 1 ± 0.042 for the second.

CGCCTCGGGC and AGAAATTCAT are within error of each other in switch fluorescence ratio: 1.02 ± 0.016 for the first, 0.992 ± 0.029 for the second.

CGTTTTTGGC and TTTTTAAGCT are within error of each other in switch fluorescence ratio: 0.992 ± 0.074 for the first, 1.02 ± 0.019 for the second.

TCATGGAGTA and AATTTTTAAC are within error of each other in switch fluorescence ratio: 0.981 ± 0.08 for the first, 1 ± 0.028 for the second.

Compared with TGGTTAGTGG, GCGGTTCGTA is lower in switch fluorescence ratio: 1 ± 0.02 for the first, 0.9699 ± 0.0018 for the second.

First: ATTATCAGGT
Second: ATAGACTAGA
The switch fluorescence ratio of the first is higher: 1.06 ± 0.057 for the first, 0.9856 ± 0.003 for the second.

First: ATTGAGCTGT
Second: GAAGGAACCG
The switch fluorescence ratio of the first is lower: 0.9812 ± 0.0062 for the first, 1.025 ± 0.0063 for the second.

AAACGGTTTC and TGTTCTCAAA are within error of each other in switch fluorescence ratio: 0.993 ± 0.036 for the first, 0.98346 ± 0.00079 for the second.

TATAGAAGT and TATGTAGTAG are within error of each other in switch fluorescence ratio: 1.002 ± 0.0015 for the first, 0.971 ± 0.042 for the second.

TTTTTGTGGT and TTGGATCCGG are within error of each other in switch fluorescence ratio: 1 ± 0.036 for the first, 0.98 ± 0.039 for the second.

ACATGATTCG and CTAGGACAGC are within error of each other in switch fluorescence ratio: 0.99 ± 0.03 for the first, 0.994 ± 0.012 for the second.

First: ACGGAGGATA
Second: AGTTAATTTG
The switch fluorescence ratio of the first is higher: 1.11 ± 0.014 for the first, 0.9823 ± 0.0097 for the second.

Compared with TATCACGGCT, ATGCGGGGGC is higher in switch fluorescence ratio: 0.969 ± 0.0099 for the first, 1.045 ± 0.0046 for the second.

First: ACGGACGCAA
Second: GAGGGGCCTC
The switch fluorescence ratio of the first is higher: 3.95 ± 0.66 for the first, 1.03 ± 0.037 for the second.

AATTTGATGG and AAAGGGGGCG are within error of each other in switch fluorescence ratio: 0.995 ± 0.013 for the first, 0.99 ± 0.017 for the second.

Compared with CGAGCTGTTT, CAAGTAGCGA is higher in switch fluorescence ratio: 1.02 ± 0.0099 for the first, 1.088 ± 0.0072 for the second.

First: TAAGTAGAG
Second: TTGTTTGTGC
The switch fluorescence ratio of the first is lower: 0.9824 ± 0.0097 for the first, 1.02 ± 0.023 for the second.

CTCTCTTTGA and GAGGAGCTGG are within error of each other in switch fluorescence ratio: 0.963 ± 0.015 for the first, 0.986 ± 0.051 for the second.

TCCTAAGGGG and GGGGTGGCTG are within error of each other in switch fluorescence ratio: 1.79 ± 1 for the first, 0.955 ± 0.023 for the second.

Compared with GTAGGAACCT, TTCGTTTGAA is lower in switch fluorescence ratio: 1.8 ± 0.12 for the first, 1 ± 0.027 for the second.

Going from GTTTTTATAG to ACACGCCCAA, the switch fluorescence ratio rises from 0.992 ± 0.014 to 1.12 ± 0.069.

AGTAAGGGGT and TATGGGGTTT are within error of each other in switch fluorescence ratio: 0.982 ± 0.021 for the first, 1.01 ± 0.031 for the second.

With TTAGAAAGTT the switch fluorescence ratio was 1.03 ± 0.091.
